Literature values as cited in PMC2846234.

Target: beta sliding clamp (Escherichia coli) (UniProt P0A988)
UniProt P0A988, sequence (P0A988 whole entry): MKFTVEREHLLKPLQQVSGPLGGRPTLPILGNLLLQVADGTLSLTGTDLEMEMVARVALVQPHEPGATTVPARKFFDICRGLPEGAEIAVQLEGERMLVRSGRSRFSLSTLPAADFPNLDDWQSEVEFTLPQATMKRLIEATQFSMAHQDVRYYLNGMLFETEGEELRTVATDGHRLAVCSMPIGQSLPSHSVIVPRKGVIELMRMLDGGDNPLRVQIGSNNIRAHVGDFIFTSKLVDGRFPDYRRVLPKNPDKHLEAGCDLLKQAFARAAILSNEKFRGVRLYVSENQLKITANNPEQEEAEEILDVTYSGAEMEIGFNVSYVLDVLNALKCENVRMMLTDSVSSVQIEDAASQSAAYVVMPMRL

- Kd: 32 nM
Substance: DNA polymerase II (from UniProt P21189)
